# According to article PMC8546028:
# Where “and” joins values, the source holds several entries; their conditions need not be identical. Equal values may be shown once.
# Legend:
# [1] = biological target: full length SM2 Tagged (SM2-FL), small heat shock protein HspSP-ShM2 of Synechococcus sp. phage S-ShM2 (Synechococcus sp. phage S-ShM2); assay: SEC-MALS; Superose-6 10/300 GL, room temperature (25 °C), 1 mg/ml (100 μl) injected, flow 0.2 ml/min; protein kept in 20 mM Tris, 200 mM NaCl, pH 8.0; self-association
# [2] = biological target: full length SM2 Tagged (SM2-FL), small heat shock protein HspSP-ShM2 of Synechococcus sp. phage S-ShM2 (Synechococcus sp. phage S-ShM2); assay: cryo-EM structure; SM2-FL at 3 mg/ml on Quantifoil R2/1 grids, Talos Arctica 200 kV; one sample sorted into a large dataset (about 90%, 8 Å) and a small dataset (about 10%, 7.7 Å); the dimer of the crystal structure fitted to the maps
# [3] = biological target: SM2-ΔN40ΔC24 (deletion of 40 amino acids from N-terminus and 24 amino acids from C-terminus of SM2) (Synechococcus sp. phage S-ShM2); assay: SEC-MALS; Superose-6 10/300 GL, room temperature (25 °C), 1 mg/ml (100 μl) injected, flow 0.2 ml/min; protein kept in 20 mM Tris, 200 mM NaCl, pH 8.0; self-association
# [4] = biological target: SM2-ΔC24 (deletion of 24 amino acids from C-terminus of SM2) (Synechococcus sp. phage S-ShM2); assay: as above
# [5] = biological target: SM2-ΔN14 (deletion of 14 amino acids from N-terminus of SM2) (Synechococcus sp. phage S-ShM2); assay: as above
# [6] = biological target: SM2-ΔN14 (deletion of 14 amino acids from N-terminus of SM2) (Synechococcus sp. phage S-ShM2); assay: crystal structure; SM2-ΔN14 at 12 mg/ml, 0.2 M lithium sulphate monohydrate, 0.1 M Tris pH 8.5, 25% PEG 3350; space group I4, 7 Å, 3 dimers in the asymmetric unit; molecular replacement with the AgsA dimer (PDB 4ZJA)
substance,measurement,setting,value
"full length SM2 Tagged (SM2-FL), small heat shock protein HspSP-ShM2 of Synechococcus sp. phage S-ShM2 (natural protein)",stoichiometry N,[1],> 40
same,stoichiometry N,[2],60 and 48
SM2-ΔN40ΔC24 (deletion of 40 amino acids from N-terminus and 24 amino acids from C-terminus of SM2) (domain or fragment),stoichiometry N,[3],2
SM2-ΔC24 (deletion of 24 amino acids from C-terminus of SM2) (domain or fragment),stoichiometry N,[4],2
SM2-ΔN14 (deletion of 14 amino acids from N-terminus of SM2) (domain or fragment),stoichiometry N,[5],24
same,stoichiometry N,[6],24
